In PMC3547035, “Investigating the Antiproliferative Activity of High Affinity DNA Aptamer on Cancer Cells”:

Experiments:
[1] = biological target: VEGF165 (Homo sapiens, UniProt P15692-4 27-191); test: SPR; SPR BIAcore 2000, CM5 chip, immobilized protein ~200 RU, PBS + Tween-20 running buffer (pH not stated), 25 C, aptamer 0.2-100 nM, 1:1 Langmuir fit; settings: protein: recombinant; tags: carrier free; chain copies: 2; hairpin (CD)
[2] = biological target: VEGF121 (Homo sapiens, UniProt P15692-9 27-147); test: as above; settings: protein: recombinant; tags: carrier free; chain copies: 2; hairpin (CD)
Chain of VEGF121 (P15692 other isoform, or with tags, fused parts or gaps): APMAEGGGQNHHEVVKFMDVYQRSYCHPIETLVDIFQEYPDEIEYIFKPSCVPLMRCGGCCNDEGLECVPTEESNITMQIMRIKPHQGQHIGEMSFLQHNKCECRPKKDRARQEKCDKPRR

Chain of VEGF165 (P15692 other isoform, or with tags, fused parts or gaps): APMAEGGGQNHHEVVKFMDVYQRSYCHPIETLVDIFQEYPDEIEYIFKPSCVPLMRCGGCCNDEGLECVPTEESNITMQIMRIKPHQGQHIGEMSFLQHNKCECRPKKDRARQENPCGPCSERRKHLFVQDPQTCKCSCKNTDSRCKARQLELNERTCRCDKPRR

CAATTGGGCCCGTCCGTATGGTGGGT (XNA, phosphorothioate linkages C1*A2 and G25*T26) [PS-modified SL2-B]
Kd [1]: 0.00056 ± 0.00044 µM | Kd [2]: 17 ± 1.24 µM
